Data from PMC2650715 (DNA repair, 2008).

Key:
Assay in all cases: pull-down
[1] = target: T1, Schizosaccharomyces pombe Rdh54 (S. pombe, UniProt Q09772 1-811)
T1 sequence (looked up): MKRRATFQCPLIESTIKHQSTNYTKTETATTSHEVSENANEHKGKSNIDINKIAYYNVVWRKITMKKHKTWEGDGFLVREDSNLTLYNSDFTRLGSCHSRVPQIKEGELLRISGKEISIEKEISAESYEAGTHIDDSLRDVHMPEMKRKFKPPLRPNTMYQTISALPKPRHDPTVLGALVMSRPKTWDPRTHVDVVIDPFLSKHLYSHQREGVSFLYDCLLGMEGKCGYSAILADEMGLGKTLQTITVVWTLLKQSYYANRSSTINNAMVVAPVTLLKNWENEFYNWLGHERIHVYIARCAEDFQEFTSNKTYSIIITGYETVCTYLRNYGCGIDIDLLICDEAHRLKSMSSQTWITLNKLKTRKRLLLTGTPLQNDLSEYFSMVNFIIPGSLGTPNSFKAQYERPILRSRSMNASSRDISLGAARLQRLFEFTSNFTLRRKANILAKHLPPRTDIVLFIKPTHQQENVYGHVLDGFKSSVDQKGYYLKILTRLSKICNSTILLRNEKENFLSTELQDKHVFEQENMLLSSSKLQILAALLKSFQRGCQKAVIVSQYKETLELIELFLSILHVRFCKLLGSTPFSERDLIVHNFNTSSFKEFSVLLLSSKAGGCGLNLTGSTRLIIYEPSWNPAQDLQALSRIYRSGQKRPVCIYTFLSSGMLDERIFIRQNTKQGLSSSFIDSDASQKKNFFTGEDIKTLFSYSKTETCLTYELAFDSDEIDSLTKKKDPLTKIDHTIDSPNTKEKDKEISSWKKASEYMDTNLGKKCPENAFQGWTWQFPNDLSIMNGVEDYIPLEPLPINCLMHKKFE

[2] = target: T2, Saccharomyces cerevisiae Rdh54 K352R mutant variant (S. cerevisiae, UniProt P38086 1-958, K352R)
T2 sequence (looked up): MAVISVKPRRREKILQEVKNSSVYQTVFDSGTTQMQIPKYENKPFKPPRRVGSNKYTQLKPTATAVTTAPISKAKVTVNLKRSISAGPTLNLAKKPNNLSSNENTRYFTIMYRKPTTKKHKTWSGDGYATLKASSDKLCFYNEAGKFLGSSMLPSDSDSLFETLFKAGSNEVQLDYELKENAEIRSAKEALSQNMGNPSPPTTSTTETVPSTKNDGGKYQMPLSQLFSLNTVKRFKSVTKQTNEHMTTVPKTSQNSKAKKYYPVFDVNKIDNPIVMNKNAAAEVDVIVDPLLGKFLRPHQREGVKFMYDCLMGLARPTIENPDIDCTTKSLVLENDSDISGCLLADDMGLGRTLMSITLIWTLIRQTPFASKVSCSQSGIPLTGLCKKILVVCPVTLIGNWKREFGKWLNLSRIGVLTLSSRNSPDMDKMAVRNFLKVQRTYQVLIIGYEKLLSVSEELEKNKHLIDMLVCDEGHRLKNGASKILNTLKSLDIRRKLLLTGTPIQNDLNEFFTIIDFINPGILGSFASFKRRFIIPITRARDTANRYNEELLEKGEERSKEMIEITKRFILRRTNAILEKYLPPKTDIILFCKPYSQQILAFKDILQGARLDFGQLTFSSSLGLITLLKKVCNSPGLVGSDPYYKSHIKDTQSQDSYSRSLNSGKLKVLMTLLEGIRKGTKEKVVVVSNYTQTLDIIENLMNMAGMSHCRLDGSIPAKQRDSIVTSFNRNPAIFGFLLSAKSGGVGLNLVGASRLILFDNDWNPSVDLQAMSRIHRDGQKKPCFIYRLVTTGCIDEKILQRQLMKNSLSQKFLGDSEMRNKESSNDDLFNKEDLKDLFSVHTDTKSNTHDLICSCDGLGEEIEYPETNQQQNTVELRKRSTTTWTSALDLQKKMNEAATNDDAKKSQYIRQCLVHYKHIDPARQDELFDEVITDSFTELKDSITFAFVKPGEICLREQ

[3] = target: T3, Saccharomyces cerevisiae Rdh54 (S. cerevisiae, UniProt P38086 1-958)
T3 sequence (looked up): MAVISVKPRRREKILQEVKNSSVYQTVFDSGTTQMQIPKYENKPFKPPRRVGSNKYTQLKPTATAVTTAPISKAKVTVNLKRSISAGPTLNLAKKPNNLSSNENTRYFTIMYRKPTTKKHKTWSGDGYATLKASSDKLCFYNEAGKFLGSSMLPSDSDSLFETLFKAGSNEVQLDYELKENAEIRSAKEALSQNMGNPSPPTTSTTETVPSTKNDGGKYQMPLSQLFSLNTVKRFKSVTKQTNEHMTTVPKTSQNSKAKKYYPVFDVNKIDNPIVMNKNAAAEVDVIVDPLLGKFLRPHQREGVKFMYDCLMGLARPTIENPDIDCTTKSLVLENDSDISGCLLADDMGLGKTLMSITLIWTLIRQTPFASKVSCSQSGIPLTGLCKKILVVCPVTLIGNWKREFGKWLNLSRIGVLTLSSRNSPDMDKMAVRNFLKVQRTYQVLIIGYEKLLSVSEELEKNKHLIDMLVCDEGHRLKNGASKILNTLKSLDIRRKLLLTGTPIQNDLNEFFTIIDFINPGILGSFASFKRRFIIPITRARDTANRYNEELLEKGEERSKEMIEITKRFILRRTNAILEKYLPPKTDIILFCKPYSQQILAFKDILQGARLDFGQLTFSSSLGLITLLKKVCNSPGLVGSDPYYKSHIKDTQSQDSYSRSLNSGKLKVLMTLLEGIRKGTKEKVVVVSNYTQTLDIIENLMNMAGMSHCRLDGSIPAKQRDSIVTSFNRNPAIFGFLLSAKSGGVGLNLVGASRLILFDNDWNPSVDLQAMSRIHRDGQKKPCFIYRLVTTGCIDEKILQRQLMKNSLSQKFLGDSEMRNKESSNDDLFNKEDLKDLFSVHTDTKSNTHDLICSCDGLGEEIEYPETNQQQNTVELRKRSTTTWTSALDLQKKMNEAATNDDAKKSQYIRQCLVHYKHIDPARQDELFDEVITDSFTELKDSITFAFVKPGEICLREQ

Measured: binding result

B1: Schizosaccharomyces pombe Dmc1 (enzyme, S. pombe, UniProt O42634 1-332, looked up)
chain: MEEFAEGNDDEQMIFSDIEDLTAHGIGMTDIIKLKQAGVCTVQGVHMSTKRFLLKIKGFSEAKVDKLKEAASKMCPANFSTAMEISQNRKKVWSISTGSEALNGILGGGIQSMSITEVFGEFRCGKTQMSHTLCVTAQLPRDMGGAEGKVAFIDTEGTFRPDRIKAIAERFGVDADQAMENIIVSRAYNSEQQMEYITKLGTIFAEDGQYRLLIVDSIMALFRVDYSGRGELSERQQKLNIMLARLNHISEEFNVAVFVTNQVQADPGAAMMFASNDRKPVGGHVMAHASATRLLLRKGRGEERVAKLNDSPDMPEAECSYVITPGGIADVS
modifications: covalently coupled to Affi-Gel 15 beads
binds: all assays above
